Patent publication US20230002466A1 (ELPIS BIOPHARMACEUTICALS, published 2023)
Substitutions are numbered along the chain they refer to.

T1: human IL2Rβ (human, UniProt P14784 27-239)
T1 construct: also called IL2β; CD122
T1 sequence (looked up): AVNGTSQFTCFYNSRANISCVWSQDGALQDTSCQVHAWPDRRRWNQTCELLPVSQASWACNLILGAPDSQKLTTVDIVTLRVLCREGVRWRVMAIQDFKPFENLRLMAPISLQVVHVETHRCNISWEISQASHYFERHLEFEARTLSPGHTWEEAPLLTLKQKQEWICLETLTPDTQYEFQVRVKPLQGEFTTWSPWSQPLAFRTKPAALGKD

T2: human IL2Rα (human, UniProt P01589 22-213, limits assumed)
T2 construct: also called IL2α; CD25
T2 sequence (looked up): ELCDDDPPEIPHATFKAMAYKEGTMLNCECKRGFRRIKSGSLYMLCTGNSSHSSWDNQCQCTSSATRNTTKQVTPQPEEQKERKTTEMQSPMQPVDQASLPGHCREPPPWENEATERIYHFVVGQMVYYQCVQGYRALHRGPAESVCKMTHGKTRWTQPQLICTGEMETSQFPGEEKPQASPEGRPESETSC

B1: EP081 (Fc fusion)
chain: ATPTSSSTKKTQLQLEHLLLDLQMILNGINNYKNPKLTRMLTFKFYMPKKATELKHLQCLEEELKPLEEVLNLAQSKNFHLGVGDTIDNINVLVKELKGSETTFMCEYADETATIVEFLNRWITFCQSIISTLTEPKSCDKTHTCPLCPAPEAAGGPSVFLFPPKPKDTLMISRTPEVTCVVVDVSHEDPEVKFNWYVDGVEVHNAKTKPREEQYNSTYRVVSVLTVLHQDWLNGKEYKCKVSNKALGAPIEKTISKAKGQPREPQVYTLPPSRDELTKNQVSLTCLVKGFYPSDIAVEWESNGQPENNYKATPPVLDSDGSFFLYSKLTVDKSRWQQGNVFSCSVMHEALHNHYTQKSLSLSPGK
B2: EP080 (Fc fusion)
chain: APTSSSTKETQLQLKHLLLDLQMILNGINNYKNPKLTRMLTFKFYMPKKATELKHLQCLEEELKPLEEVLNLAQSKNFHLKWGDAVSNARVLAGALKGSETTFMCEYADETATIVEFLNRWITFCQSIISTLTEPKSCDKTHTCPLCPAPEAAGGPSVFLFPPKPKDTLMISRTPEVTCVVVDVSHEDPEVKFNWYVDGVEVHNAKTKPREEQYNSTYRVVSVLTVLHQDWLNGKEYKCKVSNKALGAPIEKTISKAKGQPREPQVYTLPPSRDELTKNQVSLTCLVKGFYPSDIAVEWESNGQPENNYKATPPVLDSDGSFFLYSKLTVDKSRWQQGNVFSCSVMHEALHNHYTQKSLSLSPGK
B3: EP113 (ligand)
chain: APTSSSTKKTQLQLEHLLLDLQMILNGINNYKNPKLTYMLTRKFYMPKKATELKHLQCLEEELKPLEEVLNLAQSKNFHLRPRDLISNINVIVLELKGSETTFMCEYADETATIVEFLNRWITFSQSIISTLT
B4: EP105 (ligand)
chain: B3 chain with K35E, Y38I, R42P
B5: EP126 (ligand)
chain: B3 chain with Y38N, R42F, Y45S
B6: EP115 (ligand)
chain: B3 chain with I28L, Y38S, R42F, Y45S
B7: EP108 (ligand)
chain: B3 chain with Y38R, R42H, Y45V
B8: EP119 (ligand)
chain: B3 chain with Y38G, R42F, Y45S
B9: EP122 (ligand)
chain: B3 chain with Y38V, R42F, Y45P
B10: EP123 (ligand)
chain: B3 chain with Y38V, R42F, Y45F
B11: EP226 (ligand)
chain: APTSSSTKKTQLQLEHLLLDLQMILNGINNYKNPKLTRMLTAKFYMPKKATELKHLQCLEEELKPLEEVLNLAQSKNFHLGVTDSISNAIVLARELKGSETTFMCEYADETATIVEFLNRWITFSQSIISTLTGSHHHHHH
B12: EP002 (ligand)
chain: B3 chain with Y38R, R42F, R81E, R83S, L85V, I92L, L94Q, S125C
notes: also called E002; not shown: C-terminal Flag and 6xHis tags
B13: EP006 (ligand)
chain: B3 chain with Y38R, R42F, R81G, P82V, R83G, L85T, S87D, I92L, L94K, S125C
notes: also called EPIM-06; not shown: C-terminal Flag and 6xHis tags
B14: EP005 (ligand)
chain: APTSSSTKKTQLQLEHLLLDLQMILNGINNYKNPKLTRMLTFKFYMPKKATELKHLQCLEEELKPLEEVLNLAQSKNFHLTAEDVVTNITVLVQELKGSETTFMCEYADETATIVEFLNRWITFCQSIISTLT
notes: not shown: C-terminal Flag and 6xHis tags
B15: EP004 (ligand)
chain: B14 chain with T81C, A82P, E83T, V85T, V86I, T87E, V93I
notes: Produced in E. coli or mammalian cells; not shown: C-terminal Flag and 6xHis tags

Target: T1, human IL2Rβ
Test: ELISA, receptor coated, anti-human Fc HRP
Description: (§1) For bivalent Fc-fusion proteins, human IL2Rα, and human IL2Rβ were each immobilized in a 384 well plate at final concentration of 2 μg/mL in 1×PBS in total volume of 25 μL per well. The plate was incubated overnight at 4° C. followed by blocking with 80 μL of superblock per well for 1 hour. The purified engineered IL2 mutant Fc fusion protein at 100 nM was 3-fold serial diluted 12 times. Each dilution was added to IL2Rα and IL2Rβ wells in parallel. The engineered IL2 mutant binding was detected by adding 50 μL of anti-human Fc HRP diluted at 1:5000 in 1×PBST. In between each step, the plate was washed 3 times with 1×PBST in a plate washer. The plate was then developed with 25 μl of TMB substrate for 5 mins and stopped by adding 25 μl of 2N sulfuric acid. The plate was read at OD450 nm Biotek plate reader and the EC50 was analyzed with Prism 8.1 software.

EC50 [nM] | relative activity IL2Rβ (EC50: fold) against EP085 [fold] | Binder
0.2 | 1530 | B1
0.23 | 1280 | B2

Target: T2, human IL2Rα
Test: ELISA, receptor coated, anti-human Fc HRP
Description: as §1

EC50 [nM] | relative activity IL2Rα (EC50: fold) against EP085 [fold] | Binder
0.087 | -1.73 | B1
0.056 | -1.17 | B2

Target: T2, human IL2Rα
Test: SPR, IL2Rα captured on Protein A chip, IL2 at 100 nM
Description: The binding kinetics of IL2Rα-reduced binding clones to IL2Rα was assessed utilizing SPR technology with a Biacore T200, software version 2.0. For each cycle, 1 ug/mL of human IL2Rα was captured for 60 seconds at a flow rate of 10 uL/min on flow cell 2 in 1×HBSP buffer on a Protein A sensor chip. 100 nM of each HIS and Flag tag purified IL2 mutant was injected onto both the reference flow cell 1 and IL2Rα captured flow cell 2 for 150 seconds at a flow rate of 30 uL/min followed by washing for 300 seconds. The flow cells were then regenerated with Glycine pH 2.0 for 60 seconds at a flow rate of 30 uL/min. A HBSP+ buffer was included with each sample as a baseline control. The assay was set up in a 96-well format. The kinetics data was analyzed with Biacore T200 evaluation software 3.0. The specific binding response unit was derived from subtraction of binding to reference flow cell 1 from IL2Rα flow cell 2 and subtraction of buffer control. […] Relative response (RU) was determined for each IL2Rα-reduced binding clone (FIG. 4, Table 3).

RU (at 100 nM) [RU] | Relevant binding to WT IL2 (%) | Binder
2.6 | 1.83 | B3
2.1 | 1.48 | B4
2.6 | 1.83 | B5
2.4 | 1.69 | B6
2.4 | 1.69 | B7
2.7 | 1.9 | B8
2.5 | 1.76 | B9
5.3 | 3.73 | B10
3 | 2.11 | B11

Target: T1, human IL2Rβ
Test: SPR, receptor captured on Protein A chip, E. coli-produced IL2
Description: (§2) The assay was run with Biacore T200 control software version 2.0. For each cycle, 1 μg/mL of human IL2Rβ or IL2Rα was captured for 60 seconds at flow rate of 10 μL/min on flow cell 2 in 1×HBST buffer on Protein A sensor chip. Two-fold serial diluted HIS tag purified engineered IL2 mutant was injected onto both reference flow cell 1 and IL2Rβ or IL2Rα captured flow cell 2 for 150 seconds at flow rate of 30 μL/min followed by washing for 300 seconds. The flow cells were then regenerated with Glycine pH 2 for 40 seconds at a flow rate of 30 μL/mins. Eight concentration points from 0 to 100 nM were assayed for each IL2Rβ agonist clone 96-well plate format. The kinetics data was analyzed with Biacore T200 evaluation software 3000. The specific binding response unit was derived from subtraction of binding to reference flow cell 1 from target flow cell 2.

Kd [nM] | koff [s⁻¹] | kon [M⁻¹ s⁻¹] | relative activity IL2Rβ (KD: fold) against WT IL2 [fold] | Binder
2.37 | 0.00273 | 1.15e+06 | 1830 | B12
3.1 | 0.00254 | 819000 | 1400 | B13
0.885 | 0.0054 | 6.1e+06 | 4910 | B14
0.62 | 0.00189 | 3.05e+06 | 7010 | B15

Target: T2, human IL2Rα
Test: as above
Description: as §2

Kd [nM] | relative activity IL2Rα (KD: fold) against WT IL2 [fold] | Binder
101 | -10.6 | B12
481 | -50.6 | B13
12.6 | -1.3 | B14
40.5 | -4.3 | B15

Target: T1, human IL2Rβ
Test: SPR, receptor captured on Protein A chip, mammalian-produced IL2
Description: as §2

Kd [nM] | koff [s⁻¹] | kon [M⁻¹ s⁻¹] | relative activity IL2Rβ (KD: fold) against WT IL2 [fold] | Binder
0.414 | 0.00215 | 5.18e+06 | 2420 | B15

Target: T2, human IL2Rα
Test: as above
Description: as §2

Kd [nM] | relative activity IL2Rα (KD: fold) against WT IL2 [fold] | Binder
28.8 | -2.1 | B15

Target: T2, human IL2Rα
Test: IL2Rα binding ELISA with E. coli culture supernatant of the clone; hFc bar as control (Example 2)

Binder | binding result
B3 | no binding (tested: supernatant, concentration not given)
B4 | no binding (tested: supernatant, concentration not given)
B5 | no binding (tested: supernatant, concentration not given)
B6 | no binding (tested: supernatant, concentration not given)
B7 | no binding (tested: supernatant, concentration not given)
B8 | no binding (tested: supernatant, concentration not given)
B9 | no binding (tested: supernatant, concentration not given)
B10 | no binding (tested: supernatant, concentration not given)
B11 | no binding (tested: supernatant, concentration not given)
